Data as given in patent US20160152728A1 (AFFEMED, published 2016).

Columns and labels:
[1] = target: T1, EGFRvIII expressed on cells (CHO^EGFRvIII, F98^EGFRvIII) (UniProt P00533 25-1210); assay: cell-based or functional assay
T1 construct: whole, on cells; the vIII deletion must be applied; also called deletion mutant EGFRvIII

[2] = target: EGFRvIII-Fc fusion antigen (human, UniProt P00533 25-645); assay: ELISA on coated EGFRvIII-Fc; TandAb detected with Protein L-HRP, Abs(450nm) [EGFRvIII binding]
[3] = target: CD3γε recombinant antigen (UniProt P09693); assay: ELISA on coated CD3γε antigen; TandAb detected with Protein L-HRP, Abs(450nm) [CD3γε binding]
[4] = target: EGFRvIII-Fc fusion antigen (human) (UniProt P00533); assay: ELISA on coated EGFRvIII-Fc; TandAb detected with Protein L-HRP, Abs(450nm) [EGFRvIII binding]
[5] = target: T2, wild type EGFR expressed on cells (CHO^EGFR, F98^EGFR) (human, UniProt P00533 25-1210); assay: flow cytometry on F98^EGFR cells; scFv detected with anti-His followed by FITC-conj. goat anti-mouse IgG
T2 construct: whole, on cells; also called native EGFR; EGFRwt
Procedure: (§1) After a second washing cycle, the cells were incubated with 0.1 mL of 15 μg/mL FITC-conjugated goat anti-mouse IgG antibodies under the same conditions as before. As a control, cells were incubated with the anti-His IgG 13/45/31 followed by the FITC-conjugated goat anti-mouse IgG antibodies without scFvs. The cells were then washed again and resuspended in 0.2 mL of FACS buffer containing 2 μg/mL propidium iodide in order to exclude dead cells. The fluorescence of 1×10⁴ living cells was measured using a Beckman-Coulter FC500 MPL flow cytometer using the MXP software (Beckman-Coulter, Krefeld, Germany) or a Millipore Guava EasyCyte flow cytometer using the Incyte software (Merck Millipore, Schwalbach, Germany). Mean fluorescence intensities of the cell samples were calculated using CXP software (Beckman-Coulter, Krefeld, Germany) or Incyte software (Merck Millipore, Schwalbach, Germany).
(§2) In case of analysis with Beckman-Coulter FC500 MPL flow cytometer 0.5×10⁶ cells/staining and in case of Millipore Guava EasyCyte flow cytometer only 0.25×10⁶ cells/staining were used.

[6] = target: T1, EGFRvIII expressed on cells …; assay: flow cytometry on F98^EGFRvIII cells; scFv detected with anti-His followed by FITC-conj. goat anti-mouse IgG, mean fluorescence intensity
Procedure: as §1, §2

[7] = target: T1, EGFRvIII expressed on cells …; assay: flow cytometry on CHO^EGFRvIII cells; scFv detected with anti-His followed by FITC-conj. goat anti-mouse IgG, mean fluorescence intensity
Procedure: as §1, §2

Chain of CD3γε recombinant antigen (P09693 23-116, chain 1 of 2): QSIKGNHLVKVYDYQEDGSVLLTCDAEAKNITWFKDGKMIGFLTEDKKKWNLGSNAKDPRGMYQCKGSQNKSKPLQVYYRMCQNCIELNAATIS
Chain of CD3γε recombinant antigen (P07766 23-126, chain 2 of 2, further chain): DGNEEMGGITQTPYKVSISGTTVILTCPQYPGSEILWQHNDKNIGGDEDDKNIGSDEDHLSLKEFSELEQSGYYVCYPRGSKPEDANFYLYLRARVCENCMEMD

Row | EC50 (read off the curve) [2] [nM] | EC50 (read off the curve) [4] [nM] | Binder | Cytotoxic potency EC50 [1] [nM] | cytotoxicity improvement factor relative to parental TandAb [1] [fold] | other results
1 | 1 |  | EGFRvIII/CD3 TandAb with EGFRvIII binding domain ABC469, domain order (i) VL^CD3(v64)-VH^EGFRvIII-VL^EGFRvIII-VH^CD3(v64) (bispecific antibody, part only; not given: CD3 v64 domain and linkers, not shown: small tags and cut ends) chain, part: EVQLVQSGAEVKKPGESLKISCKGSGYSFNSYWIGWVRQMPGKGLEWMGIIYPGDSDTRYSPSFQGQVTISADKSISTAYLQWSSLKASDTAMYYCARLGSSWTNDAFDIWGQGTLVTVSSLTQPPSYESVSVSPGQTARITCSGDTLPKQYAYWYQQKPGQAPVLVIYKDSERPSGIPERFSGSSSGTTVTLTISGVQAEDEADYYCQSVDVSGTYVVFGGGTKLTVL | 11 | 2.5 | 
2 | 0.6 |  | EGFRvIII/CD3 TandAb with EGFRvIII binding domain ABC469, domain order (iv) VH^EGFRvIII-VL^CD3-VH^CD3-VL^EGFRvIII (bispecific antibody, part only; not given: CD3 domain and linkers, not shown: small tags and cut ends) chain, part: EVQLVQSGAEVKKPGESLKISCKGSGYSFNSYWIGWVRQMPGKGLEWMGIIYPGDSDTRYSPSFQGQVTISADKSISTAYLQWSSLKASDTAMYYCARLGSSWTNDAFDIWGQGTLVTVSSLTQPPSYESVSVSPGQTARITCSGDTLPKQYAYWYQQKPGQAPVLVIYKDSERPSGIPERFSGSSSGTTVTLTISGVQAEDEADYYCQSVDVSGTYVVFGGGTKLTVL | 6.5 | 33.3 | EC50 (read off the curve) [3]: 7 nM
3 | ~4 |  | TandAb EGFRvIII(ABC479)/CD3(v64) (bispecific antibody, also called domain order (i) VL^CD3-VH^EGFRvIII-VL^EGFRvIII-VH^CD3) tandem diabody polypeptide (homodimer): DIQMTQSPSSLSASVGDRVTITCRSSTGAVTTSNYANWVQQKPGKAPKALIGGTNKRAPGVPSRFSGSLIGDKATLTISSLQPEDFATYYCALWYSNLWVFGQGTKVEIKQSGAEVKKPGEVQLVESLKISCKGSGYDFSSYWIGWVRQMPGKGLEWMGIIYPGDSDTIYSPSFQGQVTISADKSISTAYLQWSSLKASDTAMYYCARLGSSWTNDAFDIWGQGTLVTVSSSYELTQPPSVSVSPGQTARITCSGAALPEQYAYWYQQKPGQAPVLVIYKDSERPSGIPERFSGSSSGTTVTLTISGVQAEDEADYYCQSVDSSGTFYVFGGGTKLTVLEVQLVESGGGLVQPGGSLRLSCAASGFTFSTYAMNWVRQAPGKGLEWVGRIRSKYNNYATYYADSVKDRFTISRDDSKNSLYLQMNSLKTEDTAVYYCARHGNFGNSYVSYFAYWGQGTLVTVSS |  |  | 
4 |  | 0.8 | EGFRvIII/CD3 TandAb with EGFRvIII binding domain ABC471, domain order (i) VL^CD3(v64)-VH^EGFRvIII-VL^EGFRvIII-VH^CD3(v64) (bispecific antibody, part only; not given: CD3 v64 domain and linkers, not shown: small tags and cut ends) chain, part: EVQLVQSGAEVKKPGESLKISCKGSGYSFNSYWIGWVRQMPGKGLEWMGIIYPGDSANRYSPSFQGQVTISADKSISTAYLQWSSLKASDTAMYYCARLGSSWTNDAFDIWGQGTLVTVSSSYELTQPPSVSVSPGQTARITCSGDYLPKQYAYWYQQKPGQAPVLVIYKDTERPSGIPERFSGSSSGTTVTLTISGVQAEDEADYYCQSVDSSHPSVVFGGGTKLTVL | 1.5 | 18.2 | 
5 | 0.6 |  | EGFRvIII/CD3 TandAb with EGFRvIII binding domain ABC471, domain order (iv) VH^EGFRvIII-VL^CD3-VH^CD3-VL^EGFRvIII (bispecific antibody, part only; not given: CD3 domain and linkers, not shown: small tags and cut ends) chain, part: EVQLVQSGAEVKKPGESLKISCKGSGYSFNSYWIGWVRQMPGKGLEWMGIIYPGDSANRYSPSFQGQVTISADKSISTAYLQWSSLKASDTAMYYCARLGSSWTNDAFDIWGQGTLVTVSSSYELTQPPSVSVSPGQTARITCSGDYLPKQYAYWYQQKPGQAPVLVIYKDTERPSGIPERFSGSSSGTTVTLTISGVQAEDEADYYCQSVDSSHPSVVFGGGTKLTVL | 3.1 | 69.8 | 
6 |  | 0.7 | EGFRvIII/CD3 TandAb with EGFRvIII binding domain ABC470, domain order (i) VL^CD3(v64)-VH^EGFRvIII-VL^EGFRvIII-VH^CD3(v64) (bispecific antibody, part only; not given: CD3 v64 domain and linkers, not shown: small tags and cut ends) chain, part: EVQLVQSGAEVKKPGESLKISCKGSGYSFNSYWIGWVRQMPGKGLEWMGIIYPGDSDTRYSPSFQGQVTISADKSISTAYLQWSSLKASDTAMYYCARLGSSWTNDAFDIWGQGTLVTVSSSYELTQPPSVSVSPGQTARITCSGDALDKQYAYWYQQKPGQAPVLVIYKDSERPSGIPERFSGSSSGTTVTLTISGVQAEDEADYYCQSVDSSETYVVFGGGTKLTVL | 4 | 6.8 | 
7 | 0.9 |  | EGFRvIII/CD3 TandAb with EGFRvIII binding domain ABC470, domain order (iv) VH^EGFRvIII-VL^CD3-VH^CD3-VL^EGFRvIII (bispecific antibody, part only; not given: CD3 domain and linkers, not shown: small tags and cut ends) chain, part: EVQLVQSGAEVKKPGESLKISCKGSGYSFNSYWIGWVRQMPGKGLEWMGIIYPGDSDTRYSPSFQGQVTISADKSISTAYLQWSSLKASDTAMYYCARLGSSWTNDAFDIWGQGTLVTVSSSYELTQPPSVSVSPGQTARITCSGDALDKQYAYWYQQKPGQAPVLVIYKDSERPSGIPERFSGSSSGTTVTLTISGVQAEDEADYYCQSVDSSETYVVFGGGTKLTVL | 3.8 | 56.9 | 
8 |  | 0.8 | EGFRvIII/CD3 TandAb with EGFRvIII binding domain ABC472, domain order (i) VL^CD3(v64)-VH^EGFRvIII-VL^EGFRvIII-VH^CD3(v64) (bispecific antibody, part only; not given: CD3 v64 domain and linkers, not shown: small tags and cut ends) chain, part: EVQLVQSGAEVKKPGESLKISCKGSGYSFGYYWIGWVRQMPGKGLEWMGIIYPGDSHTRYSPSFQGQVTISADKSISTAYLQWSSLKASDTAMYYCARLGSSWTNDAFDIWGQGTLVTVSSSYELTQPPSVSVSPGQTARITCSGDALPKQYAYWYQQKPGQAPVLVIYKDTERPSGIPERFSGSSSGTTVTLTISGVQAEDEADYYCQSVDSSGTQVVFGGGTKLTVL | 4.2 | 6.5 | 
9 |  |  | Li3G30 scFv (parental) (scFv, V domains shown, One-chain scFv, His-tagged; also called parental scFv; starting clone Li3G30) VH: EVQLVQSGAEVKKPGESLKISCKGSGYSFTSYWIGWVRQMPGKGLEWMGIIYPGDSDTRYSPSFQGQVTISADKSISTAYLQWSSLKASDTAMYYCARLGSSWTNDAFDIWGQGTMVTVSS VL: SYELTQPPSVSVSPGQTARITCSGDALPKQYAYWYQQKPGQAPVLVIYKDSERPSGIPERFSGSSSGTTVTLTISGVQAEDEADYYCQSADSSGTPLIVFGTGTKLTVL |  |  | binding result [5]: no binding (tested: about 3300 nM); EC50 (read off the curve) [6]: ~6 nM; EC50 (read off the curve) [7]: ~5 nM
10 | ~1 |  | TandAb EGFRvIII(ABC478)/CD3(v64) (bispecific antibody, also called domain order (i) VL^CD3-VH^EGFRvIII-VL^EGFRvIII-VH^CD3) tandem diabody polypeptide (homodimer): DIQMTQSPSSLSASVGDRVTITCRSSTGAVTTSNYANWVQQKPGKAPKALIGGTNKRAPGVPSRFSGSLIGDKATLTISSLQPEDFATYYCALWYSNLWVFGQGTKVEIKEVQLVQSGAEVKKPGESLKISCKGSGYSFNSYWIGWVRQMPGKGLEWMGIIYPGDEDTRYSPSFQGQVTISADKSISTAYLQWSSLKASDTAMYYCARLGSSWTNDAFDIWGQGTLVTVSSSYELTQPPSVSVSPGQTARITCSGDALPKQYAYWYQQKPGQAPVLVIYKDTERPSGIPERFSGSSSGTTVTLTISGVQAEDEADYYCQSVDPSGTYVVFGGGTKLTVLEVQLVESGGGLVQPGGSLRLSCAASGFTFSTYAMNWVRQAPGKGLEWVGRIRSKYNNYATYYADSVKDRFTISRDDSKNSLYLQMNSLKTEDTAVYYCARHGNFGNSYVSYFAYWGQGTLVTVSS |  |  | 
